Experimental data from article PMC11662666 (Nucleic Acids Research, 2024).
“And” between values parts separate entries of the source, which are not always exact repeats. Equal values may be shown once.

Columns and labels:
[1] = molecular target: Giardia intestinalis deoxyadenosine kinase lacking the C-terminus (dAK-ΔC, amino acids 1-232) (Giardia intestinalis (assemblage A isolate WB)); assay: mass photometry; Refeyn 2MP, protein in PBS; 50 nM by the methods, 65 nM by the results
[2] = molecular target: Giardia intestinalis deoxyadenosine kinase (Giardia intestinalis (assemblage A isolate WB)); assay: SEC; Superdex 200 10/300 GL, 150 mM KCl, 50 mM Tris-HCl pH 7.6, 0.4 ml/min; protein at 0.1 mg/ml (4 μM); mass from a standard curve
[3] = molecular target: Giardia intestinalis deoxyadenosine kinase (Giardia intestinalis (assemblage A isolate WB)); assay: crystal structure + cryo-EM structure
[4] = molecular target: Giardia intestinalis deoxyadenosine kinase (Giardia intestinalis (assemblage A isolate WB)); assay: mass photometry; Refeyn 2MP, protein in PBS; 50 nM by the methods, 65 nM by the results
[5] = molecular target: T1, deoxyadenosine kinase (dAK) (Giardia duodenalis, UniProt A8B9V6); assay: enzyme inhibition kinetics with purified dAK; co-purified dATP seen by HPLC; assay type: biochemical; set-up: gene GL50803_0017451; full-length dAK
T1 sequence (A8B9V6 1-251): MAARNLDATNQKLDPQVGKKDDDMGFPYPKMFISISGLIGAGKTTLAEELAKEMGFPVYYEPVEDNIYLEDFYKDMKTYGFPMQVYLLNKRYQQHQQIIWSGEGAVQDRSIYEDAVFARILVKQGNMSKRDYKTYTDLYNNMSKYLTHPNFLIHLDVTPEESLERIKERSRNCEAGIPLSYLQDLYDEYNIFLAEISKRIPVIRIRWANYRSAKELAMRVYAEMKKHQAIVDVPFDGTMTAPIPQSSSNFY

[6] = molecular target: Giardia intestinalis deoxyadenosine kinase lacking the N-terminus (dAK-ΔN, amino acids 30-251) (Giardia intestinalis (assemblage A isolate WB)); assay: mass photometry; Refeyn 2MP, protein in PBS; 50 nM by the methods, 65 nM by the results
[7] = molecular target: Giardia intestinalis deoxyadenosine kinase lacking the N- and C-termini (dAK-ΔNΔC, amino acids 30-232) (Giardia intestinalis (assemblage A isolate WB)); assay: as above
[8] = molecular target: T1, deoxyadenosine kinase (dAK); assay: X-ray crystal structure at […] Å (co-purified ligand); HPLC of bound nucleotides; enzyme inhibition; assay type: binding; set-up: gene GL50803_0017451; full-length dAK (untagged after TEV cleavage)
[9] = substrate: Nc1nc(F)nc2c1ncn2[C@@H]1O[C@H](CO)[C@@H](O)[C@@H]1O; assay: steady-state kinetics with purified enzyme, HPLC (KM); assay type: biochemical, Giardia duodenalis; settings: ATP and Mg2+ (phosphate donor in assay)
[10] = substrate: Nc1ncnc2c1ncn2[C@@H]1O[C@H](CO)[C@@H](O)[C@@H]1O; assay: as above; assay type: biochemical, Giardia duodenalis; settings: ATP and Mg2+ (phosphate donor in assay)
[11] = substrate: Nc1nc(I)nc2c1ncn2[C@H]1C[C@H](O)[C@@H](CO)O1; assay: as above; assay type: biochemical, Giardia duodenalis; settings: ATP and Mg2+ (phosphate donor in assay)
[12] = substrate: Nc1ncnc2c1ncn2[C@@H]1O[C@H](CO)[C@@H](O)[C@@H]1F; assay: as above; assay type: biochemical, Giardia duodenalis; settings: ATP and Mg2+ (phosphate donor in assay)
[13] = substrate: Nc1nc(Cl)nc2c1ncn2[C@@H]1O[C@H](CO)[C@@H](O)[C@@H]1F; assay: as above; assay type: biochemical, Giardia duodenalis; settings: ATP and Mg2+ (phosphate donor in assay)
purified protein [14] = substrate: Nc1nc(Cl)nc2c1ncn2[C@H]1C[C@H](O)[C@@H](CO)O1; assay: purified protein; settings: ATP and Mg2+ (phosphate donor in assay) active site (2-Cl towards F72, modelled)
purified protein [15] = substrate: Nc1ncnc2c1ncn2[C@H]1C[C@H](O)[C@@H](CO)O1; assay: purified protein; settings: ATP and Mg2+ (phosphate donor in assay) active site

## Giardia intestinalis deoxyadenosine kinase lacking the C-terminus (dAK-ΔC, amino acids 1-232) (domain or fragment)
[1]
  stoichiometry N: 2 and 4

## Giardia intestinalis deoxyadenosine kinase (enzyme)
[2]
  stoichiometry N: 4
[3]
  stoichiometry N: 4
[4]
  stoichiometry N: 4

## Nc1ncnc2c1ncn2[C@H]1C[C@H](O)[C@@H](COP(=O)(O)OP(=O)(O)OP(=O)(O)O)O1 [dATP, deoxyadenosine triphosphate]
[5]
  Ki: 840 ± 220 nM

## Giardia intestinalis deoxyadenosine kinase lacking the N-terminus (dAK-ΔN, amino acids 30-251) (domain or fragment)
[6]
  stoichiometry N: 4 and 2

## Giardia intestinalis deoxyadenosine kinase lacking the N- and C-termini (dAK-ΔNΔC, amino acids 30-232) (domain or fragment)
[7]
  stoichiometry N: 2

## Nc1ncnc2c1ncn2[C@H]1C[C@H](O)[C@@H](COP(=O)(O)O)O1 [dAMP, deoxyadenosine monophosphate]
[8]
  X-ray crystal structure at 2.1 Å (co-purified ligand); HPLC of bound nucleotides: the density for active site II unambiguously allowed for the placement of a dAMP

B1: deoxyadenosine kinase (dAK) (Giardia lamblia ATCC 50803) (protein)
chain: MAARNLDATNQKLDPQVGKKDDDMGFPYPKMFISISGLIGAGKTTLAEELAKEMGFPVYYEPVEDNIYLEDFYKDMKTYGFPMQVYLLNKRYQQHQQIIWSGEGAVQDRSIYEDAVFARILVKQGNMSKRDYKTYTDLYNNMSKYLTHPNFLIHLDVTPEESLERIKERSRNCEAGIPLSYLQDLYDEYNIFLAEISKRIPVIRIRWANYRSAKELAMRVYAEMKKHQAIVDVPFDGTMTAPIPQSSSNFY
notes: full-length dAK
[9]
  Km: 8.40 ± 0.60 µM
  Vmax: 7.2 µmol/min/mg
  kcat: 3.48 s⁻¹
  kcat/Km: 414000 M⁻¹ s⁻¹
[10]
  Km: 6.70 ± 0.07 µM
  Vmax: 6.6 µmol/min/mg
  kcat: 3.19 s⁻¹
  kcat/Km: 476000 M⁻¹ s⁻¹
[11]
  Km: 4.78 ± 0.17 µM
  Vmax: 13.7 µmol/min/mg
  kcat: 6.63 s⁻¹
  kcat/Km: 1.39e+06 M⁻¹ s⁻¹
[12]
  Km: 2.66 ± 0.11 µM
  Vmax: 7.64 µmol/min/mg
  kcat: 3.69 s⁻¹
  kcat/Km: 1.39e+06 M⁻¹ s⁻¹
[13]
  Km: 6.23 ± 1.33 µM
  Vmax: 7.26 µmol/min/mg
  kcat: 3.51 s⁻¹
  kcat/Km: 563000 M⁻¹ s⁻¹
Purified protein [14]
  Km: 0.51 ± 0.08 µM
  Vmax: 5.78 µmol/min/mg
  kcat: 2.79 s⁻¹
  kcat/Km: 5.48e+06 M⁻¹ s⁻¹
Purified protein [15]
  Km: 1.12 ± 0.37 µM
  Vmax: 10.3 µmol/min/mg
  kcat: 4.96 s⁻¹
  kcat/Km: 4.43e+06 M⁻¹ s⁻¹
